According to PMC9592637, “Functional characterization and transcriptional repression by Lacticaseibacillus paracasei DinJ-YafQ” (Applied Microbiology and Biotechnology, 2022):

Experiments:
[1] = tested on: DinJ R13A (Lacticaseibacillus paracasei 4366); experiment: EMSA; conditions: complete loss of binding up to 1.5 uM; EMSA: 2 nM DNA, 128 ng salmon sperm DNA in 10 uL, 50 mM Tris-HCl pH 7.5, 50 mM KCl, 5% glycerol, room temperature 10 min, 6% native PAGE in TBE; RNAP …
[2] = tested on: DinJ;YafQ_pa2333 (Lacticaseibacillus paracasei 4366;Lacticaseibacillus paracasei 2333); experiment: EMSA; conditions: EMSA: 2 nM DNA, 128 ng salmon sperm DNA in 10 uL, 50 mM Tris-HCl pH 7.5, 50 mM KCl, 5% glycerol, room temperature 10 min, 6% native PAGE in TBE; RNAP …
[3] = tested on: DinJ;YafQ_pa4366 (Lacticaseibacillus paracasei 4366;Lacticaseibacillus paracasei 4366); experiment: EMSA; conditions: EMSA: 2 nM DNA, 128 ng salmon sperm DNA in 10 uL, 50 mM Tris-HCl pH 7.5, 50 mM KCl, 5% glycerol, room temperature 10 min, 6% native PAGE in TBE; RNAP …
[4] = tested on: T1, DinJ;YafQ_pa4366 (Lacticaseibacillus paracasei 4366;Lacticaseibacillus paracasei 4366), ORF:82b9b73a+ORF:f6e62217; experiment: competition; conditions: EMSA: 2 nM DNA, 128 ng salmon sperm DNA in 10 uL, 50 mM Tris-HCl pH 7.5, 50 mM KCl, 5% glycerol, room temperature 10 min, 6% native PAGE in TBE; RNAP …
T1 sequence 1: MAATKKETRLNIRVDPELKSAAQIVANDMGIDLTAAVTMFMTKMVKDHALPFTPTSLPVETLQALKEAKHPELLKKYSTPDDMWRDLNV
T1 sequence 2: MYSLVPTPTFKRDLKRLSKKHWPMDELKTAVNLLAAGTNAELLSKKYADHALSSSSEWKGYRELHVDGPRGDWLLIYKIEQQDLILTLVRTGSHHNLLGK

Substance	Kd [1]	Kd [2]	Kd [3]	binding [4]
194-bp dinJ-yafQ promoter fragment	> 1500 nM	79 nM	44 nM	
CGTCCTCAAGCTGCTCTTGTGTTAATGGTTTCTTTTTTGTGCTCATACGTTAAATCTATCACCGCAAGGGATAAATATCTAACACCGTGCGTGTTGACTATTTTACCTCTGGCGGTGATAATGGTTGCATGTACTAAGGAGGTTGTATGGAACAACGCATAACCCTGAAAGATTATGCAATGCGCTTTGGGCAAAC (double strand) [196-bp lambda PR promoter fragment]				no binding
